Assay results reported in patent publication US20260049134A1 (UNIVERSITY OF FLORIDA RESEARCH FOUNDATION, published 2026).

T1: ANXA1
T1 construct: also called ANXA1-His (R&D Systems); not shown: His tag
T1 chain: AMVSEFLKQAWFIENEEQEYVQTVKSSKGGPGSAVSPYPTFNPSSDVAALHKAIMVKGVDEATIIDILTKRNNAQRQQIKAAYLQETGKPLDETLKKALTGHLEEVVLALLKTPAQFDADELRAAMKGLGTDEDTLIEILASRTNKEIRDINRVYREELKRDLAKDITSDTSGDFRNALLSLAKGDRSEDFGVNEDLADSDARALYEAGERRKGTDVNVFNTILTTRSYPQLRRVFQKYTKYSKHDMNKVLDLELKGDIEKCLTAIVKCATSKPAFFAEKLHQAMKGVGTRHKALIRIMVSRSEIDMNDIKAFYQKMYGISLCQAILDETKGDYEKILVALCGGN

T2: SLAMF7
T2 construct: also called SLAMF7-StrepTag; not shown: StrepTag and any linker
T2 chain: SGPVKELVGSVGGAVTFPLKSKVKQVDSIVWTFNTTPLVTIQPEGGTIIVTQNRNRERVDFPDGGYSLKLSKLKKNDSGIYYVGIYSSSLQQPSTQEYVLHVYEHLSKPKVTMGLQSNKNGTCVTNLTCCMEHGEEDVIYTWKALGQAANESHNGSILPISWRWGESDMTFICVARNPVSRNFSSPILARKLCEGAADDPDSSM

T3: GARS-His (Sino Biological) (human, UniProt P41250 37-739, limits assumed)
T3 construct: Bought; also called GARS1; glycyl-tRNA synthetase; not shown: His tag of the bought protein
T3 sequence: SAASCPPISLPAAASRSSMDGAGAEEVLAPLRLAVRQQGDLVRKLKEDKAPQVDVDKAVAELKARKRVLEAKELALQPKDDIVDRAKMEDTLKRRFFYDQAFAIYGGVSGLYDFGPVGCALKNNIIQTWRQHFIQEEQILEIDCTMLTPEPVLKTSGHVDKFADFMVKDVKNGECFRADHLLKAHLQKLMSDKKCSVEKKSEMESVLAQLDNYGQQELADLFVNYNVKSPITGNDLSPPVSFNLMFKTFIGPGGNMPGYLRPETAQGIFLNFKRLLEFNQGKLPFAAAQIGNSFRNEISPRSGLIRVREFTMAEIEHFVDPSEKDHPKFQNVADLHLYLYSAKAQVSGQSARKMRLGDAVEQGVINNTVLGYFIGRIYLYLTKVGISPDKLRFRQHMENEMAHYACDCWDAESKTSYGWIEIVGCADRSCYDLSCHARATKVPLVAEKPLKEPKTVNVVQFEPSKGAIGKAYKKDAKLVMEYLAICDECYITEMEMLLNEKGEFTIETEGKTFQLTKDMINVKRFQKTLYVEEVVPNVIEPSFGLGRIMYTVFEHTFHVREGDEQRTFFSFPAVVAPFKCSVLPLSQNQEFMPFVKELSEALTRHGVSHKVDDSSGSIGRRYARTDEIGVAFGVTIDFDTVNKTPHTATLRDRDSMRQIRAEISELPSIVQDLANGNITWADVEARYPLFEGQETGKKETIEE

T4: IL13RA1
T4 construct: also called IL13RA1-Fc-His (R&D Systems)
T4 chain: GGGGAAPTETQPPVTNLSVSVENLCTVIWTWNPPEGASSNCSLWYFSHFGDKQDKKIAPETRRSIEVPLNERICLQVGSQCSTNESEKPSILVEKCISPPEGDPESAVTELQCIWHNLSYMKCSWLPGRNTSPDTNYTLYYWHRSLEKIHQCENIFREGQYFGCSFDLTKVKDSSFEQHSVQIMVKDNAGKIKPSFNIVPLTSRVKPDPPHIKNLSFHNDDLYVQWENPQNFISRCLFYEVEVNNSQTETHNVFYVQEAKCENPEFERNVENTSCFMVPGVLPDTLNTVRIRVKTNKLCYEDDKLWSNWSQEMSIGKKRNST

T5: GARS, endogenous in H929 multiple myeloma cells (human, UniProt P41250 37-739, limits assumed)
T5 construct: Native protein pulled down from H929 lysates; also called Glycyl-tRNA synthetase; GlyRS
T5 sequence: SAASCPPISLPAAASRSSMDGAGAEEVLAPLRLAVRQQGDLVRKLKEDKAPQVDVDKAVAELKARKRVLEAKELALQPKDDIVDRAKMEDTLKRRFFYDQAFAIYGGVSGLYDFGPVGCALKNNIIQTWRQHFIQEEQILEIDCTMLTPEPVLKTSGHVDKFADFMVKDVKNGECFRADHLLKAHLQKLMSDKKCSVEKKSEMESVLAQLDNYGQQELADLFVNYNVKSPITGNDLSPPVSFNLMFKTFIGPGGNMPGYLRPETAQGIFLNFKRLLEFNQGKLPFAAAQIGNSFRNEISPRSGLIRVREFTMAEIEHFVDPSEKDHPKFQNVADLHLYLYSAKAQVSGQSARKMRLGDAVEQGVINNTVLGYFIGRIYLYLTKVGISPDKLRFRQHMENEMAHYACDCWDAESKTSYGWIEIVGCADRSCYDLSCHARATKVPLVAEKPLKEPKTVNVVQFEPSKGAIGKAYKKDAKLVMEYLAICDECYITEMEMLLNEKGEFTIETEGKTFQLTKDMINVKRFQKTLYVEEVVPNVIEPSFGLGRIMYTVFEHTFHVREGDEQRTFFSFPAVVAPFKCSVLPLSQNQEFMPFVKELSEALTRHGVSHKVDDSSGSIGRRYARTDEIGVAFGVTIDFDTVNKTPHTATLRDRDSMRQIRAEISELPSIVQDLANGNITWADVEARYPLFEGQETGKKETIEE


Legend:
ANXA1 = molecular target: T1, ANXA1; test: ELISA on coated protein
SLAMF7 = molecular target: T2, SLAMF7; test: ELISA on coated protein
[1] = molecular target: T3, GARS-His (Sino Biological); test: ELISA on coated protein
IL13RA1 = molecular target: T4, IL13RA1; test: ELISA on coated protein
[2] = molecular target: T6, PTPRG, endogenous in H929 multiple myeloma cells (human, UniProt P23470 20-1445); test: flow cytometry, H929 + NT Green siRNA; None 1.35
T6 construct: Native protein on H929 cells (flow cytometry, siRNA knockdown) and in H929 lysates (IP/MS); also called phosphatase receptor type γ

[3] = molecular target: T5, GARS, endogenous in H929 multiple …; test: flow cytometry, H929 + ICAM1 siRNA; None 455; surface target GARS putative
[4] = molecular target: T5, GARS, endogenous in H929 multiple …; test: flow cytometry, H929 + NT Green siRNA; None 416; surface target GARS putative
[5] = molecular target: T5, GARS, endogenous in H929 multiple …; test: flow cytometry, H929 + vehicle; None 2.74; surface target GARS putative
[6] = molecular target: T5, GARS, endogenous in H929 multiple …; test: flow cytometry, H929 + vehicle; None 513; surface target GARS putative
[7] = molecular target: T5, GARS, endogenous in H929 multiple …; test: flow cytometry, H929 + CDH18 siRNA; None 0.19; surface target GARS putative

T6 sequence (P23470 20-1445 limits assumed): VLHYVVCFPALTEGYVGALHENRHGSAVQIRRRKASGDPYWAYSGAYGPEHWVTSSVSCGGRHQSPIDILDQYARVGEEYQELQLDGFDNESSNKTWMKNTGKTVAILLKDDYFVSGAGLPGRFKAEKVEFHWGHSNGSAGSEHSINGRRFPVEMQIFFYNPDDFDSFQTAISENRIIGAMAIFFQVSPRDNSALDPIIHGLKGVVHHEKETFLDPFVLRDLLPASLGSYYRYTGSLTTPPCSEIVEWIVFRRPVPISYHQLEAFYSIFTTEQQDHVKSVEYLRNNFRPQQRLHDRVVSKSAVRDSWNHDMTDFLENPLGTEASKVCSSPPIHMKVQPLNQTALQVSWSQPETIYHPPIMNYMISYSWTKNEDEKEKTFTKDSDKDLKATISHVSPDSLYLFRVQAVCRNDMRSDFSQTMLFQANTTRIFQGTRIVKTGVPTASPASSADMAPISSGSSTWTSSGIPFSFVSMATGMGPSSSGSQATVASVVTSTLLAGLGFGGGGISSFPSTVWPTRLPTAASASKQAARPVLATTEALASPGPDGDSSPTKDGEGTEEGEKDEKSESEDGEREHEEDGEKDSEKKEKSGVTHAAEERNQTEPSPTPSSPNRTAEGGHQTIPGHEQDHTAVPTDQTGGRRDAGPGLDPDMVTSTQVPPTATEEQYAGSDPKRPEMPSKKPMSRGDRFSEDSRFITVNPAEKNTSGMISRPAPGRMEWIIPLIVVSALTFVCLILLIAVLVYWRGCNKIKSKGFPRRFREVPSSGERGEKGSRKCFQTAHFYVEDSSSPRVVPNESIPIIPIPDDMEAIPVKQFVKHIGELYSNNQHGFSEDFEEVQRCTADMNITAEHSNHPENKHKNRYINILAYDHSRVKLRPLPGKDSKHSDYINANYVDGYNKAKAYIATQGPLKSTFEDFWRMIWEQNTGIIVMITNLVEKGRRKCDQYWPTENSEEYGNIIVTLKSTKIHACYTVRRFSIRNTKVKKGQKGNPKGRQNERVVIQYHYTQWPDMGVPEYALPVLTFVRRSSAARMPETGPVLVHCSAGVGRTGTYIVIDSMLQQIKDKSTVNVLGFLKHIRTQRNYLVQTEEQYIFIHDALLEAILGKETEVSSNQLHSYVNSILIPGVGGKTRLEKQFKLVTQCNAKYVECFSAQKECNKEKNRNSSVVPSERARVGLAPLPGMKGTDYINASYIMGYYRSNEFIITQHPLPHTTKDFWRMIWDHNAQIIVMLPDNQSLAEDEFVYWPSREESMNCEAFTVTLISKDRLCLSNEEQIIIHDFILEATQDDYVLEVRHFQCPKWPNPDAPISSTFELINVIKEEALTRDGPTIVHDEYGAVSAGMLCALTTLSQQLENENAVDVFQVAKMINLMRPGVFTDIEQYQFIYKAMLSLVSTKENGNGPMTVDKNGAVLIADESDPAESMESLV

Cells stained (%) [2] | mAb binding (MFI) [3] | mAb binding (MFI) [4] | Cells stained (%) [5] | mAb binding (MFI) [6] | Cells stained (%) [7] | Binder | binding result (ANXA1) | binding result (SLAMF7) | binding result [1] | binding result (IL13RA1)
99.4% | – | – | – | – | – | HW-1 chimeric rabbit-human IgG1 LA/LA/PG (antibody, V domains shown, Fc-silenced (L234A/L235A/P329G) IgG1, lambda; Alexa Fluor 647-labeled in single-step flow cytometry; Prototype of cluster C-1) VH: QSLEESGGGLFKPTDTLTLTCTASGFSLGSSYAISWVRQAPGKELEWIGTIDSGRAYYARWAKSRSTITRNTNENTVTLKMTSLTAADTATYFCARDLIPTYSQDIWGPGTLVTISS VL: SFVLTQPASVQVNLGQTVSLTCTADTLSRRYASWYQQKPGQAPVLLIYRDTSRPSGVPDRFSGSSSGNTATLTISGAQAGDEADYYCATSDGSGNSYQYVFGGGTQLTVTS | no binding (tested: 150 ng IgG1 per well) | no binding (tested: 150 ng IgG1 per well) | no binding (tested: 150 ng IgG1 per well) | no binding (tested: 150 ng IgG1 per well)
– | – | – | – | – | – | HW-101 chimeric rabbit-human IgG1 LA/LA/PG (antibody, V domains shown, Fc-silenced (L234A/L235A/P329G) IgG1, lambda; Alexa Fluor 647-labeled in single-step flow cytometry; Cluster C-97) VH: QEQLVESGGRLVTPGTPLTLTCKASGFSLGKYDMSWVRQAPGKGLEWIGTIYAGSGSTWYASWAKGRFTISKTSTTVDLKMTSLTTEDTATYFCARDFLGVNSIWGPGTLVTISS VL: SFVLTQPASVQVNLGQTVSLTCTADTLSRSYASWYQQKPDQAPVLLIHRDTSRPSGVPDRFSGSNSGNTATLTISGAQAGDEADYYCATSDGSGSNFHFVFGGGTQLTVTG | no binding (tested: 150 ng IgG1 per well) | no binding (tested: 150 ng IgG1 per well) | no binding (tested: 150 ng IgG1 per well) | no binding (tested: 150 ng IgG1 per well)
– | – | – | – | – | – | HW-97 chimeric rabbit-human IgG1 LA/LA/PG (antibody, V domains shown, Fc-silenced (L234A/L235A/P329G) IgG1, lambda; Alexa Fluor 647-labeled in single-step flow cytometry; Prototype of cluster C-97) VH: QKQLVESGGRLVTPGTPLTLTCTVTGIDLSSHGMSWVRQAPGKGLEWIGVIYPSGSTWYASWARGRFTISKTSTTVDLKMTSLTTEDTATHFCARGDVGGADNNIWGPGTLVTVSS VL: SFVLTQPASVQVDLGQTVSLTCTAETLSRSYASWYQQKPGQAPVLLIYRDTSRPSGVPDRFSGSSSGNTATLTISGAQAGDEADYYCATSDGSGSSYQYVFGGGTQLTVTG | no binding (tested: 150 ng IgG1 per well) | no binding (tested: 150 ng IgG1 per well) | no binding (tested: 150 ng IgG1 per well) | no binding (tested: 150 ng IgG1 per well)
– | – | – | – | – | – | HW-113 chimeric rabbit-human IgG1 LA/LA/PG (antibody, V domains shown, Fc-silenced (L234A/L235A/P329G) IgG1, lambda; Alexa Fluor 647-labeled in single-step flow cytometry) VH: QKQLVESGGGLVQPGGSLTLTCTVSGFSLNKYYMGWFRQAPGKGLEWIGVISRSGDTYYSSWAKGRFTISKASTTVDLRITSPTTEDTATYFCARDASSPGFHGDRLDLWGQGTLVTVSS VL: SFVLTQPASVQVNLGQTVSLTCTADTLSRSYASWYQQKPGQAPVLLIYRDTSRPSGVPDRFSGSSSGNTATLTISGAQAGDEADYYCATSDGIGSNYLWVFGGGTQLTVTG | no binding (tested: 150 ng IgG1 per well) | no binding (tested: 150 ng IgG1 per well) | no binding (tested: 150 ng IgG1 per well) | no binding (tested: 150 ng IgG1 per well)
99% | – | – | – | – | – | HW-17 chimeric rabbit-human IgG1 LA/LA/PG (antibody, V domains shown, Fc-silenced (L234A/L235A/P329G) IgG1, lambda; Alexa Fluor 647-labeled in single-step flow cytometry; Cluster C-1) VH: QSLGESRGRLVTPDETLTLTCTVSGIDLSSNAMSWVRQAPGEGLEWIGTINTGGRAYYASWAKGRFTISRTSTTVDLKMTSLTTEDTATYFCARERYSDGRAYDIWGPGTLVTISS VL: SFVLTQPASVQVNLGQTVSLTCTADTLSRRYASWYQQKPGQAPVLLIYTDSNRPSGIPDRFSGSSSGNTATLTISGAQAGDEADYYCATDDGSGSIYQYVFGGGTQLTVTG | no binding (tested: 150 ng IgG1 per well) | no binding (tested: 150 ng IgG1 per well) | no binding (tested: 150 ng IgG1 per well) | no binding (tested: 150 ng IgG1 per well)
– | – | – | – | – | – | TH9-0022 (antibody, human IgG1, kappa, L234A L235A, V domains shown, also called TH9-022; negative control IgG1) VH: QSLEESGGRLVTPGTPLTLTCTVSGFSLSSYAMNWVRQAPGKGLEWIGIINSYGSTYYASWAKGRFTISKTSTTVDLKITSPTTEDTATYFCARVTYDSYGYGYAPYGMDLWGPGTLVTVSS VL: LVMTQTPSSTSNAVGGTVTIKCQASQSIGNVLAWYQQKPGQPPKLLIYAASTLASGVPSRVGGSRSGTEYTLTISGVQREDAATYYCLGSDSDSDIAFGGGTELEILR | no binding (tested: 150 ng IgG1 per well) | no binding (tested: 150 ng IgG1 per well) | no binding (tested: 150 ng IgG1 per well) | no binding (tested: 150 ng IgG1 per well)
– | 11400 | 15500 | 84.7% | 16700 | 99.4% | HW-8 chimeric rabbit-human IgG1 LA/LA/PG (antibody, V domains shown, Fc-silenced (L234A/L235A/P329G) IgG1, kappa; Alexa Fluor 647-labeled in single-step flow cytometry; Cluster C-45) VH: QSLEESGGRLVTPGTPLTLTCTVSGFSLSSYAMSWVRQAPGKGLEWIGAISTGGSTTYASWAKGRFTISKTSSTTVDLKMTSLTTEDTATYFCVRHFRLWGPGTLVTISS VL: QVLTQTPSSVSAAVGGTVTIKCQASQSIGSALAWFQQKPGQRPKLLIYRASNLASGVPSRFKGSGSGTEFALTISGVQREDAATYYCLGGAAAVWAFGAGTNVEIKR | no binding (tested: 150 ng IgG1 per well) | no binding (tested: 150 ng IgG1 per well) | – | no binding (tested: 150 ng IgG1 per well)
